Experimental data: patent US20180282403A1, “AGENTS FOR REDUCING THE ACTIVITY OF GDF15” (GENAGON THERAPEUTICS AB, priority 2015, published 2018)

Columns and labels:
Type in all cases: cell-based
[1] = system: QRFPR; experiment: In situ PLA detection of RAB11-QRFPR double positive endosomes in MCF7 cells; conditions: GDF15 stimulation alone; FIG. 5
Text: The RAB11 protein is a marker for recycling endosomes back to the cell surface, and the RAB11 pathway is also involved in exosome assembly (Savina et al., 2005; Savina et al., 2002). RAB11 was thus thought to be a likely candidate to be involved in QRFPR reduction on the cell surface induced by GDF15
An in situ PLA assay was developed to detect the proximity of RAB11 and QRFPR. In the absence of GDF15, only a low signal is observed (FIGS. 5A and 5C).
We choose to use this assay as a way to investigate if the activity of GDF15 could be inhibited by various agents. […] GDF15-induced formation of RAB11/QRFPR endosomes is inhibited by QRFPR peptides (FIG. 9A-D). Equal amounts of a mastermix of GDF15 was aliquoted and pre-incubated in PBS with the various receptor fragment before addition to cells. Sequentially, the cells were treated with either PBS, GDF15 or GDF15/QRFPR-derived peptide mixes.

[2] = molecular target: T1, QRFPR (Homo sapiens, UniProt Q96P65); experiment: In situ PLA detection of ACTRIIB-QRFPR proximity in MCF7 cells; conditions: serum-starved MCF7 cells, GDF15 20 minutes; FIG. 3A-B
T1 construct: endogenous in cells
T1 sequence (Q96P65 1-431): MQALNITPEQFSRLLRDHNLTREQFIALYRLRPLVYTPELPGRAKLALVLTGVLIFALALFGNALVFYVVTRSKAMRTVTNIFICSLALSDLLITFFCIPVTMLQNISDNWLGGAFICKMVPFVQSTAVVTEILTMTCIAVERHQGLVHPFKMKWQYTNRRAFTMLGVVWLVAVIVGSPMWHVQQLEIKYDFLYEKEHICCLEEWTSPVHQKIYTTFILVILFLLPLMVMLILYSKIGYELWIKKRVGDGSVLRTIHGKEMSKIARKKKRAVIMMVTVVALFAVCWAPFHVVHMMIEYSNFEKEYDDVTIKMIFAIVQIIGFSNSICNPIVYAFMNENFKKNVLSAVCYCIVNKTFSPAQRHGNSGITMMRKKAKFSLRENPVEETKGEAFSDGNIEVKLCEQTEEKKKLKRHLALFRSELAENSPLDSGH
Method: MCF7 cells were stimulated with GDF15 (GDF15 from isolated mammalian source or recombinant derived from E. coli purchased from Abcam and Biovision). An assay was developed for monitoring the activity of GDF15 and to investigate the dynamics of receptor(s) such as QRFPR modulation by the ligand.
Serum-starved MCF7 cells were treated with GDF15, and an in situ PLA detection assay was developed to detect the interaction between ACTRIIB and QRFPR using antibodies from two different species, thus allowing the use of Duolink secondary detection reagents. The presence of the QRFPR-ACTRIIB complex was detected in the absence of GDF15 (see FIG. 3A, indicated by arrows).

[3] = molecular target: T2, CLPTM1 (Homo sapiens, UniProt O96005); experiment: In situ PLA detection of the CLPTM1-TGFBRI complex in NK-92 cells; conditions: GDF15 stimulation, FIG. 14
T2 construct: endogenous in cells; host or cells: NK-92 cells
T2 sequence (O96005 1-669): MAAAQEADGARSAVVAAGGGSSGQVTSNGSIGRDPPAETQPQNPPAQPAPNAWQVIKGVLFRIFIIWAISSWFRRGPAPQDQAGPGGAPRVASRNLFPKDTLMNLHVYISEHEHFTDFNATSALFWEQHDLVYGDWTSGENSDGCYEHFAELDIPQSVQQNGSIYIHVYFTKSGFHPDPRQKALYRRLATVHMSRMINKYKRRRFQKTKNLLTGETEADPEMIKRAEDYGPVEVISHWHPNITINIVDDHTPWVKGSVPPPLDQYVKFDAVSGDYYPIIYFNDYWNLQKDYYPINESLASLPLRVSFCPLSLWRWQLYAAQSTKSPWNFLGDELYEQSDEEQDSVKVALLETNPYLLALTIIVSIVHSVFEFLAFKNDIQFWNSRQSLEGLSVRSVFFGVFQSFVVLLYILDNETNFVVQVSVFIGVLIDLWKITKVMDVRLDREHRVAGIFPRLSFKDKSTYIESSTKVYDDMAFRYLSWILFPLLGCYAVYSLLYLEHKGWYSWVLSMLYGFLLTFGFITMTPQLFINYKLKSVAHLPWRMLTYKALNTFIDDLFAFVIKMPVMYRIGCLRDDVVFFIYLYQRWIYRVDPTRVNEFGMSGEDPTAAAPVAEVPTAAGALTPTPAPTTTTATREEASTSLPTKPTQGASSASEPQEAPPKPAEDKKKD
Method: (§1) GDF15 has been reported in the literature to mediate downstream signalling resembling both the canonical (SMAD) pathway mediated by ALK5(TGFBRI) kinase domain, and non-canonical TGFβ receptor signalling, such as phosphorylation of GSK3b. In order to investigate if CLPTM1 was involved in this we developed a set of in situ PLA assays to determine the dynamics between CLPTM1 and the TGFβ receptors and components downstream of the TGFβ receptors. NK-92 cells were treated with GDF15 for 40 min to detect phosphorylated SMAD proteins such as SMAD2 in the nucleus. […] From previous experiments with TGFB1 stimulation we know that the assay (pSMAD2) was functional.

[4] = molecular target: T1, QRFPR; experiment: QRFPR levels after prolonged GDF15 stimulation with or without proteasome inhibition; conditions: GDF15 18 hrs, absence of MG132; FIG. 6B
Method: This effect is not seen in cells which are treated with MG132 (FIG. 6D).

[5] = molecular target: T1, QRFPR; experiment: In situ PLA detection of RAB4-QRFPR double positive endosomes; conditions: GDF15 stimulation alone; FIG. 7
Method: An assay was developed to detect the proximity of RAB4-QRFPR using antibodies against RAB4 and QRFPR.
In short, the cells were serum starved overnight then pre-incubated with blocking antibodies towards extracellular parts of QRFPR for 2 hrs prior to GDF15 treatment (1 μg/ml) for 30 minutes. The levels of formed RAB4-QRFPR complexes were measured by visualization of formed RCA products using the Duolink is PLA system (see FIG. 11).

[6] = system: SMAD2; experiment: Detection of phosphorylated SMAD2 in NK-92 cells; conditions: GDF15 40 min
Method: as §1

## GDF15: Growth and differentiation factor 15, from mammalian source or recombinant from E. coli (Abcam, Biovision)
[1]
  RAB11-QRFPR double positive endosomes: rapid detection of RAB11-QRFPR double positive endosomes
[2]
  ACTRIIB-QRFPR in situ PLA signal: reduced by GDF15 treatment
[3]
  proximity between CLPTM1 and TGFBRI(ALK5): induced proximity between CLPTM1 and TGFBRI(ALK5)
[4]
  levels of QRFPR: dramatically reduced the levels of QRFPR
[5]
  RAB4-QRFPR double positive endosomes: formation of RAB4-QRFPR double positive endosomes was detected
[6]
  c-terminal phosphorylated SMAD 2: failed to detect c-terminal phosphorylated SMAD 2
